Values quoted from earlier work in article PMC10601247.

Columns and labels:
[1] = target: flotillin-2 (Homo sapiens) (UniProt Q14254); experiment: SPR
[2] = target: flotillin-1 (Homo sapiens) (UniProt O75955); experiment: SPR
Sequence of UniProt O75955 (O75955 whole entry): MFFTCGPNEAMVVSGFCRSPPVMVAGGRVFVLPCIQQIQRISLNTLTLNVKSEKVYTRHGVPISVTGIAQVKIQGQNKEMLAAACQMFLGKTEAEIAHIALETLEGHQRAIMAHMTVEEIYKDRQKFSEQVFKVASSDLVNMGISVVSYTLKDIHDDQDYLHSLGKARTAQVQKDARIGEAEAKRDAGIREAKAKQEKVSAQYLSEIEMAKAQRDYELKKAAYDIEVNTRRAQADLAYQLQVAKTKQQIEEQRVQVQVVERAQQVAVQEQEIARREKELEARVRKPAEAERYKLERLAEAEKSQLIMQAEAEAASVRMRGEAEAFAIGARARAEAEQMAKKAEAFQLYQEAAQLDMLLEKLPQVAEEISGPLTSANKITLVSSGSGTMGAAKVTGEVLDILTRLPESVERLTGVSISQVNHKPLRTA

Sequence of UniProt Q14254 (Q14254 2-428): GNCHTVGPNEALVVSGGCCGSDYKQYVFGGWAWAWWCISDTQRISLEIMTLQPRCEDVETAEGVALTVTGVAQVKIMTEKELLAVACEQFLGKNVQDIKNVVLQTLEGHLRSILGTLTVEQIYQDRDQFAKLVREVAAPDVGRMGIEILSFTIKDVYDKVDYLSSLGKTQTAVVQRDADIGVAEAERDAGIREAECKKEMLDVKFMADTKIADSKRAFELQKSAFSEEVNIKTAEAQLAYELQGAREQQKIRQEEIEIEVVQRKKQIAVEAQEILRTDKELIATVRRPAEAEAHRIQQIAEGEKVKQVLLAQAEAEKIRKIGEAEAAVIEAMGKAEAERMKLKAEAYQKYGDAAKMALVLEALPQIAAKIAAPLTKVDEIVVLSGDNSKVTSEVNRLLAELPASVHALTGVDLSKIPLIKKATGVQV

## MPP1 (from UniProt Q00013)
[1]
  Kd: 31 nM
[2]
  Kd: 23 nM
